Measurements taken from publication PMC4216633 (Journal of nuclear medicine : official publication, Society …, 2014).

Tests used:
thrombus = assay: Ex vivo biodistribution in rat model of arterial thrombosis; settings: rat carotid crush thrombosis
[1] = rat, in vivo, iv
[2] = rat, in vivo

Substance | uptake at the target site (thrombus), persisted over 5h (thrombus) | elimination half-life of the intact probe in blood [1] [min] | intact probe in blood at 4h post-injection [2] [%]
FHCHypY(3-Cl)DLCHIL-PXD (disulfide) [FBP8] | 0.5–0.8 % ID/g | 13.8 ± 3.8 | > 85
FHCHypY(3-Cl)DLCHIL-PXD (disulfide) [FBP9] | 0.5–0.8 % ID/g | 17.9 ± 5.8 | > 85
